Assay results from US20040260068A1 (published 2004).

T1: human P-selectin on CHO-K1 transfectant cells (human, UniProt P16109 42-830)
T1 construct: whole, on cells; also called CHO-P selectin
T1 sequence (looked up): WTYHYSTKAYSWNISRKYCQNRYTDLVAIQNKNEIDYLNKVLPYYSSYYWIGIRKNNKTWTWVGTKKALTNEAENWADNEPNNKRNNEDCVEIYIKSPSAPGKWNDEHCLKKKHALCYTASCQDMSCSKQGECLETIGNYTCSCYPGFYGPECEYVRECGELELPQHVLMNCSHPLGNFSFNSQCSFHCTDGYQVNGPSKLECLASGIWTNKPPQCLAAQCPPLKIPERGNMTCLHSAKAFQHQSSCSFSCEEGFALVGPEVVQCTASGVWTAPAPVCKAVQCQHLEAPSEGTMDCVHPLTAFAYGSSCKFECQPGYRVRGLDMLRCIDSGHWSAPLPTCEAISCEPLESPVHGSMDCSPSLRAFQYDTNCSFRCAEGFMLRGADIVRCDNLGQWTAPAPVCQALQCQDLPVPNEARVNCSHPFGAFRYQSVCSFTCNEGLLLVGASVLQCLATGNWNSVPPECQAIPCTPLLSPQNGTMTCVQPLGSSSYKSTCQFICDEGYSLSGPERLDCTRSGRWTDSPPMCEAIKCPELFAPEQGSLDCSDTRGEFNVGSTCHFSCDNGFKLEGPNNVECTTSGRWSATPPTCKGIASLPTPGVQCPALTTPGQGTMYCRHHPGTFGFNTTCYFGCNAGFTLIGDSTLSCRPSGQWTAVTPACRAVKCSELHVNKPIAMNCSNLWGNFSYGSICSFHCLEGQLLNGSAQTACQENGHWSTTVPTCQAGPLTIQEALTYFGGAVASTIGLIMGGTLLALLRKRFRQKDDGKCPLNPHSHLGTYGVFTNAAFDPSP

T2: human E-selectin on CHO-K1 transfectant cells (human, UniProt P16581 22-610)
T2 construct: whole, on cells; also called CHO-E Selectin; CHO-E selectin
T2 sequence (looked up): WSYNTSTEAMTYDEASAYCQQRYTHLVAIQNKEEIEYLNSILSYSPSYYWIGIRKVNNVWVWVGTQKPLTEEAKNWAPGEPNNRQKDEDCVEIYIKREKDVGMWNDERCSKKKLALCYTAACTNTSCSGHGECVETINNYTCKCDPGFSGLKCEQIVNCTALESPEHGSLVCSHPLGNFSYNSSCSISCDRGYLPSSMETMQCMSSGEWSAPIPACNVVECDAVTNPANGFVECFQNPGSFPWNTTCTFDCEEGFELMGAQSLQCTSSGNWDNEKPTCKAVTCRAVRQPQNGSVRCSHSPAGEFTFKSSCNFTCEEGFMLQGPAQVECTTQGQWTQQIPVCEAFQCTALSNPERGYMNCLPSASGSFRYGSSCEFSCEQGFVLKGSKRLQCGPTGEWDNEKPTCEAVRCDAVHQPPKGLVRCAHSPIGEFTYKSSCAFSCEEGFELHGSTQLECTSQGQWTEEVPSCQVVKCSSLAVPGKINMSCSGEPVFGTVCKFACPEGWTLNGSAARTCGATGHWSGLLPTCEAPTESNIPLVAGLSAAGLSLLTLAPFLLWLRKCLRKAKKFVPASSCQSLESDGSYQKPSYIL

T3: recombinant soluble human L-selectin (human, UniProt P14151 39-332)
T3 construct: extracellular domain; The residue numbers 1-279 count on the mature protein, not on the precursor
T3 sequence (looked up): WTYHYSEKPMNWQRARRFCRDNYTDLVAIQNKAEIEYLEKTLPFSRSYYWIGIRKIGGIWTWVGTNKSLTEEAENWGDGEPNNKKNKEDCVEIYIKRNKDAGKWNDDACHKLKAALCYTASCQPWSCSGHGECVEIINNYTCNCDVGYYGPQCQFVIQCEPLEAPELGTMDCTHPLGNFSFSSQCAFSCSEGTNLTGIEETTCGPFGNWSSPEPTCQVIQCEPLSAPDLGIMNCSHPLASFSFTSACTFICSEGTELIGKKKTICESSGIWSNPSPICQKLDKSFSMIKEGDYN


Assays:
[1] = biological target: T1, human P-selectin on CHO-K1 transfectant …; test: flow cytometry on CHO-K1 transfectants; panel H read as CHO-P selectin
Method: (§1) 2×10⁵ cells were incubated on ice for 30 minutes in FACS buffer (PBS containing 1% bovine serum albumin and 0.2% sodium azide) with 1 μg of test antibody or buffer alone. After incubation, cells were washed three times with FACS buffer and subsequently incubated for another 30 minutes with PE-conjugated donkey anti-human IgG F(ab′)2 fragment (Jackson ImmunoResearch). After washing three times with FACS buffer, relative cell fluorescence was analyzed by flow cytometry using a Cyan (DAKOCytomation).

[2] = biological target: T2, human E-selectin on CHO-K1 transfectant …; test: flow cytometry on CHO-K1 transfectants
Method: as §1

[3] = biological target: T3, recombinant soluble human L-selectin; test: competition ELISA on coated soluble human L-selectin; competitor of biotinylated ChD3
Method: ELISA plates were coated with 0.25 μg/ml soluble human L-selectin in 0.2 M sodium carbonate buffer (pH 9.4) and blocked with SuperBlock blocking buffer (Pierce). […] As controls, humanized anti-human L-selectin monoclonal antibody HuDREG55 (Co et al., Immunotechol. 4:253-266 (1999)) and humanized anti-human HLA-DR monoclonal antibody Hu1D10 (Kostelny et al., Int. J. Cancer 93:556-565 (2001)) were used. ELISA plates were incubated at room temperature for 2 hr. After washing the wells with Washing Buffer (PBS containing 0.1% Tween 20), 100 μl of 1 μg/ml HRP-conjugated streptavidin (Pierce) in ELISA buffer was added to each well. ELISA plates were incubated at room temperature for 60 min and washed with Washing Buffer. For color development, 100 μl/well of ABTS substrate was added. Color development was stopped by adding 100 μl/well of 2% oxalic acid. Absorbance was read at 415 nm.

[4] = biological target: T1, human P-selectin on CHO-K1 transfectant …; test: flow cytometry on CHO-K1 transfectants
Method: as §1

IC50 [3] | Binder | binding result [1] | binding result [2] | binding result [4]
3.4 µg/mL | chicken-human chimeric anti-L-selectin antibody D3 (antibody, V domains shown, Transiently expressed in 293-H cells; also called ChD3; chimeric D3) VH: AVTLDESGGGLQTPGGALSLVCRASGFSIGSYNMHWVRQAPGKGLEWVAGISGAGSRTAWYGAAVKGRATISRDNGQSTVRLQLNNLRAEDTGTYYCAKDYGGSGSPWYGWGAASWIDAWGHGTEVIVSS VL: ALTQPASVSANPGETVKITCSGGSYYGWYQQKSPGSAPVTVIYDNDKRPSDIPSRFSGSKSGSTGTLTITGVQAEDEAVYFCGSADSAYVGIFGAGTTLTVL | no binding (tested: 1 µg of test antibody) | no binding (tested: 1 µg of test antibody) | –
2.9 µg/mL | humanized anti-L-selectin antibody D3 (antibody, V domains shown, Transiently expressed in 293-H cells; also called HuD3; humanized D3) VH: EVQLLESGGGLVQPGGSLRLSCAASGFSIGSYNMHWVRQAPGKGLEWVAGISGAGSRTAWYGAAVKGRATISRDNAKNTVYLQMNSLRAEDTAVYYCAKDYGGSGSPWYGWGAASWIDAWGQGTLVTVSS VL: SSELTQDPAVSVALGQTVRITCSGGSYYGWYQQKPGQAPVTVIYDNDKRPSDIPSRFSGSKSGSTGSLTITGAQAEDEADYYCGSADSAYVGIFGGGTKLTVL | – | no binding (tested: 1 µg of test antibody) | no binding (tested: 1 µg of test antibody)
